Test results reported in patent US20230002480A1.

Key:
Test in all cases: cell-based or functional assay
[1] = molecular target: HIV-1 Env of pseudovirus TRO.11 (HIV-1)
[2] = molecular target: HIV-1 Env of pseudovirus CNE52 (HIV-1)
[3] = molecular target: HIV-1 Env of pseudovirus Q461.e2 (HIV-1)
[4] = molecular target: HIV-1 Env of pseudovirus CNE19 (HIV-1)
[5] = molecular target: HIV-1 Env of pseudovirus 231965.c01 (HIV-1)
[6] = molecular target: HIV-1 Env of pseudovirus CNE53 (HIV-1)
[7] = molecular target: HIV-1 Env of pseudovirus BJOX028000.10.3 (HIV-1)
[8] = molecular target: HIV-1 Env of pseudovirus 6240_08_TA5_4622 (HIV-1)
[9] = molecular target: HIV-1 Env of pseudovirus Ce1176_A3 (HIV-1)
[10] = molecular target: HIV-1 Env of pseudovirus HIV-0013095-2.11 (HIV-1)
[11] = molecular target: HIV-1 Env of pseudovirus C2101.c01 (HIV-1)
[12] = molecular target: HIV-1 Env of pseudovirus 6041.v3.c23 (HIV-1)
[13] = molecular target: HIV-1 Env of pseudovirus 191955_A11 (HIV-1)
[14] = molecular target: HIV-1 Env of pseudovirus 6480.v4.c25 (HIV-1)
[15] = molecular target: HIV-1 Env of pseudovirus P1981_C5_3 (HIV-1)
[16] = molecular target: HIV-1 Env of pseudovirus Du156.12 (HIV-1)
[17] = molecular target: HIV-1 Env of pseudovirus T255-34 (HIV-1)
[18] = molecular target: HIV-1 Env of pseudovirus 1012_11_TC21_3257 (HIV-1)
[19] = molecular target: HIV-1 Env of pseudovirus 0260.v5.c36 (HIV-1)
[20] = molecular target: HIV-1 Env of pseudovirus THRO4156.18 (HIV-1)
[21] = molecular target: HIV-1 Env of pseudovirus X2088_c9 (HIV-1)
[22] = molecular target: HIV-1 Env of pseudovirus 211-9 (HIV-1)
[23] = molecular target: HIV-1 Env of pseudovirus ZM247v1(Rev-) (HIV-1)
[24] = molecular target: HIV-1 Env of pseudovirus AC10.0.29 (HIV-1)
[25] = molecular target: HIV-1 Env of pseudovirus 231966.c02 (HIV-1)
[26] = molecular target: HIV-1 Env of pseudovirus Ce2010_F5 (HIV-1)
[27] = molecular target: HIV-1 Env of pseudovirus Ce1172_H1 (HIV-1)
[28] = molecular target: HIV-1 Env of pseudovirus WEAU_d15_410_787 (HIV-1)
[29] = molecular target: HIV-1 Env of pseudovirus ZM109F.PB4 (HIV-1)
[30] = molecular target: HIV-1 Env of pseudovirus CNE17 (HIV-1)
[31] = molecular target: HIV-1 Env of pseudovirus SC422661.8 (HIV-1)
[32] = molecular target: HIV-1 Env of pseudovirus CNE21 (HIV-1)
[33] = molecular target: HIV-1 Env of pseudovirus HIV-16845-2.22 (HIV-1)
[34] = molecular target: HIV-1 Env of pseudovirus 3016.v5.c45 (HIV-1)
[35] = molecular target: HIV-1 Env of pseudovirus T250-4 (HIV-1)
[36] = molecular target: HIV-1 Env of pseudovirus BJOX025000.01.1 (HIV-1)

PGDM1400 (antibody)
IC50 [1]: 0.283 µg/mL | IC80 [1]: 1.38 µg/mL | IC50 [2]: 1.15 µg/mL | IC80 [2]: 9.97 µg/mL | IC50 [3]: 0.089 µg/mL | IC80 [3]: 0.572 µg/mL | IC50 [4]: 1 ng/mL | IC80 [4]: 7 ng/mL | IC50, titer in TZM.bl cells [5]: 0.025 µg/mL | IC80, titer in TZM.bl cells [5]: 1.28 µg/mL | IC50 [6]: 0.077 µg/mL | IC80 [6]: 0.246 µg/mL | IC50, titer in TZM.bl cells [7]: 0.072 µg/mL | IC80, titer in TZM.bl cells [7]: 0.963 µg/mL | IC50 [8]: > 50 µg/mL | IC80 [8]: > 50 µg/mL | IC50 [9]: 0.587 µg/mL | IC80 [9]: 11.6 µg/mL | IC50 [10]: 3 ng/mL | IC80 [10]: 0.012 µg/mL | IC50, titer in TZM.bl cells [11]: 6 ng/mL | IC80, titer in TZM.bl cells [11]: 0.021 µg/mL | IC50, titer in TZM.bl cells [12]: 0.013 µg/mL | IC80, titer in TZM.bl cells [12]: 0.289 µg/mL | IC50 [13]: 1 ng/mL | IC80 [13]: 0.021 µg/mL | IC50, titer in TZM.bl cells [14]: > 50 µg/mL | IC80, titer in TZM.bl cells [14]: > 50 µg/mL | IC50, titer in TZM.bl cells [15]: 0.104 µg/mL | IC80, titer in TZM.bl cells [15]: 4.6 µg/mL | IC50 [16]: 2 ng/mL | IC80 [16]: 8 ng/mL | IC50, titer in TZM.bl cells [17]: 0.654 µg/mL | IC80, titer in TZM.bl cells [17]: > 50 µg/mL | IC50 [18]: 0.049 µg/mL | IC80 [18]: 0.23 µg/mL | IC50 [19]: 0.033 µg/mL | IC80 [19]: 0.175 µg/mL | IC50 [20]: 0.072 µg/mL | IC80 [20]: 0.348 µg/mL | IC50, titer in TZM.bl cells [21]: > 50 µg/mL | IC80, titer in TZM.bl cells [21]: > 50 µg/mL | IC50, titer in TZM.bl cells [22]: 0.088 µg/mL | IC80, titer in TZM.bl cells [22]: 0.393 µg/mL | IC50 [23]: 0.019 µg/mL | IC80 [23]: 0.051 µg/mL | IC50 [24]: 0.105 µg/mL | IC80 [24]: 0.869 µg/mL | IC50, titer in TZM.bl cells [25]: 1 ng/mL | IC80, titer in TZM.bl cells [25]: 4 ng/mL | IC50 [26]: > 50 µg/mL | IC80 [26]: > 50 µg/mL | IC50 [27]: 0.021 µg/mL | IC80 [27]: 0.06 µg/mL | IC50 [28]: 0.103 µg/mL | IC80 [28]: 1.37 µg/mL | IC50 [29]: 0.057 µg/mL | IC80 [29]: 0.382 µg/mL | IC50 [30]: 7 ng/mL | IC80 [30]: 0.021 µg/mL | IC50 [31]: 0.436 µg/mL | IC80 [31]: 6.53 µg/mL | IC50 [32]: < 1 ng/mL | IC80 [32]: 2 ng/mL | IC50 [33]: > 50 µg/mL | IC80 [33]: > 50 µg/mL | IC50, titer in TZM.bl cells [34]: > 50 µg/mL | IC80, titer in TZM.bl cells [34]: > 50 µg/mL | IC50 [35]: < 1 ng/mL | IC80 [35]: < 1 ng/mL | IC50, titer in TZM.bl cells [36]: 0.087 µg/mL | IC80, titer in TZM.bl cells [36]: 0.573 µg/mL
